± gives the uncertainty stated by the source.
B1: Serine/threonine-protein kinase LATS1, residues 98 to 141; numbered along this chain, O95835 (parent)
chain: TSEVNPQMLQDLQAAGFDEDMVIQALQKTNNRSIEAAIEFISKM
B2: Histone H1t, residues 44 to 112; numbered along this chain, P22492 (parent)
chain: VSKLITEALSVSQERVGMSLVALKKALAAAGYDVEKNNSRIKLSLKSLVNKGILVQTRGTGASGSFKLS

Variants of: B1
Assay: abundance fitness (aPCA) (normalised: wild type 0, dead -1); higher = more abundant; growth selection in yeast, the domain comes from the species named
Details: Homo sapiens

Abundance fitness of substitutions, site by site:
K43: Y -0.194 ± 0.079 | P -0.333 ± 0.057 | T -0.004 ± 0.045 | R -0.027 ± 0.032 | S -0.035 ± 0.042 | V -0.135 ± 0.04
M44: P -0.148 ± 0.056 | V 0.011 ± 0.041 | G -0.063 ± 0.043 | Q 0.055 ± 0.075 | L -0.11 ± 0.038 | E 0.052 ± 0.056 | W -0.232 ± 0.053 | A -0.053 ± 0.034 | S -0.04 ± 0.059 | C -0.037 ± 0.051 | R -0.057 ± 0.039

Variants of: B2
Assay: as above
Details: Homo sapiens

Abundance fitness of substitutions, site by site:
S10: W -0.788 ± 0.13 | K -0.17 ± 0.062 | E -0.41 ± 0.26 | D -0.029 ± 0.087 | Q -0.165 ± 0.12 | R -0.129 ± 0.084 | V -0.167 ± 0.058 | F -0.655 ± 0.034 | C -0.43 ± 0.087 | M -0.175 ± 0.034 | N -0.024 ± 0.053 | P -0.835 ± 0.18 | G 0.027 ± 0.1 | Y -0.286 ± 0.04 | L -0.261 ± 0.029 | T 0.016 ± 0.064 | H -0.275 ± 0.14 | I -0.316 ± 0.038
I5: F -0.372 ± 0.038 | E -1.13 ± 0.24 | T -0.985 ± 0.16 | L -0.244 ± 0.029 | H -1.46 ± 0.39 | W -0.46 ± 0.072 | N -0.664 ± 0.15 | P -1.16 ± 0.19 | G -0.942 ± 0.074 | V -0.267 ± 0.049 | A -0.705 ± 0.11 | R -1.24 ± 0.12 | D -1.04 ± 0.22 | Q -1.28 ± 0.27 | M -0.33 ± 0.043 | C -0.415 ± 0.083
S2: Y -0.185 ± 0.039 | E 0.566 ± 0.22 | K 0.251 ± 0.055 | I -0.234 ± 0.039 | F -0.383 ± 0.03 | L -0.398 ± 0.029 | C -0.438 ± 0.17 | H -0.474 ± 0.094 | T -0.145 ± 0.19 | N 0.051 ± 0.066 | A -0.404 ± 0.3 | M -0.316 ± 0.038 | Q -0.344 ± 0.15 | D 0.251 ± 0.12 | V -0.652 ± 0.1 | P -0.456 ± 0.18
E7: Y -0.589 ± 0.036 | W -0.275 ± 0.21 | R 0.032 ± 0.16 | G -1.05 ± 0.21 | M -0.63 ± 0.052 | V -0.826 ± 0.088 | S -0.497 ± 0.095 | C -0.493 ± 0.11 | K -0.12 ± 0.05 | N -0.118 ± 0.042 | I -0.739 ± 0.047 | D -0.101 ± 0.073 | A -0.996 ± 0.26 | L -0.89 ± 0.044 | Q -0.429 ± 0.15 | F -0.808 ± 0.038
V1: N -0.557 ± 0.1 | I 0.005 ± 0.072 | K -0.403 ± 0.12 | M -0.16 ± 0.094 | T -0.337 ± 0.076 | A -0.12 ± 0.35 | S -0.512 ± 0.11 | H -0.877 ± 0.43 | F -0.054 ± 0.097 | P 0.071 ± 0.32 | Y -0.269 ± 0.091 | L -0.536 ± 0.17
L9: Q -0.697 ± 0.23 | F -0.061 ± 0.027 | H -0.915 ± 0.47 | K -0.194 ± 0.051 | V -0.301 ± 0.36 | Y -0.1 ± 0.039 | C -0.401 ± 0.41 | I 0.045 ± 0.039 | S -0.66 ± 0.1 | M -0.145 ± 0.043 | T 0.03 ± 0.13 | N -0.826 ± 0.062
L4: W -0.506 ± 0.32
K3: D -0.144 ± 0.1 | I -0.656 ± 0.072 | S -0.297 ± 0.092 | W -0.691 ± 0.042 | Y -0.717 ± 0.17 | N -0.139 ± 0.13 | G -0.45 ± 0.035 | C -0.411 ± 0.063 | M -0.583 ± 0.054 | R -0.251 ± 0.043 | L -0.474 ± 0.043 | V -0.431 ± 0.041 | F -0.595 ± 0.091 | E 0.001 ± 0.05
A8: I -0.032 ± 0.04 | R -0.335 ± 0.056 | D -1.13 ± 0.14 | N -0.531 ± 0.078 | T -0.447 ± 0.14 | G -0.522 ± 0.053 | E -0.719 ± 0.13 | P -1.06 ± 0.22 | W -0.026 ± 0.05 | H -0.324 ± 0.11 | M -0.163 ± 0.038 | C -0.137 ± 0.056 | F -0.217 ± 0.029 | L -0.275 ± 0.027 | Y -0.345 ± 0.043 | K -0.411 ± 0.076 | S -0.42 ± 0.055 | Q -0.584 ± 0.13
V11: L -0.129 ± 0.034 | E -0.106 ± 0.063 | G -0.101 ± 0.032 | K 0.053 ± 0.064 | I -0.185 ± 0.058 | C -0.077 ± 0.037 | F -0.138 ± 0.035 | D -0.138 ± 0.055
T6: S -0.168 ± 0.082 | Y -0.298 ± 0.19 | A -0.536 ± 0.14 | H -0.05 ± 0.25 | Q -0.002 ± 0.15 | G -0.629 ± 0.15 | P -1.24 ± 0.14 | N -0.031 ± 0.097 | L -0.222 ± 0.056 | C -0.181 ± 0.1 | W -0.737 ± 0.15 | K 0.092 ± 0.066 | D -0.299 ± 0.21 | M -0.098 ± 0.061 | F -0.578 ± 0.14 | R -0.04 ± 0.074 | V -0.153 ± 0.082 | E -0.112 ± 0.12 | I -0.071 ± 0.098

Reference: the Human Domainome abundance scans (Beltran et al. 2025)
